Results from patent publication US20250002563A1 (UNIVERSITY OF PITTSBURGH OF THE COMMONWEALTH SYSTEM OF …, published 2025).
Changes are numbered by the printed parent chain.

B1: 5p-171 (VHH)
VHH: QVQLVESGGGLVQTGGSLRLSCAASGRTFSTYTMGWFRQAPGKEREFVAAITPTGYGTKSADSVKGRFIISRDNPKNTVYLQMNNLKPEDTAVYYCAARSGTITNQDQYDFHYWGQGTQVTVSS
B2: 5p-58 (VHH)
VHH: HVQLVESGGGLVQAGESLRLLCVASGSIDSINAMGWFRQAPGKQRELVASISNMHTTMYAESVKGRFTISRDNFKNTADLQMNSLKPEDTAIYFCNLRQGCSYNGCDEYWGQGTQVTVSS
B3: 5p-165 (VHH)
VHH: B2 VHH with L21S, D29S, M54I, M58L, N73T, F74A, N83D, F94Y, G100D
B4: 5p-167 (VHH)
VHH: B2 VHH with H1Q, E16G, F74A, G100R
B5: 5p-162 (VHH)
VHH: DVQLVESGGGFVQAGGSLRLSCADSGLTRSVWPMGWFRQAPGKEREFVAGIAWSGERQSYADFVKGRFTVSRDNARNTVYLQMNSLKPEDTAVYYCAAPTSGVFGRTYAPTATSSYDSWGQGTQVTVSS
B6: 4P-84 (VHH)
VHH: HVQLVESGGGLVQAGGSLRLSCAVSGRTVSTYGMGWFRQAPGKERDFVATITRSGGTTLYADSVKGRFTISRDNAKNTVYLQMNSLKIEDTAVYYCAVRRDSSFGYSRDSFEYDDWGQGTQVTVSS
B7: 5p-169 (VHH)
VHH: DVQLVESGGGLVQAGGSLRLSCLVSGLTFSTYGMGWFRQAPGKEREFVAQITRSGSPTLYADSVKGRFTISRDNAKNTMYLQMNSLKIEDTAVYYCAVRRDSSWGYSRDSFEYDYWGQGTQVTVSS
B8: 4P-86 (VHH)
VHH: B6 VHH with H1D, G35A, D46E, G55E, L59F, F104W
B9: 5p-74 (VHH)
VHH: DVQLVESGGGLVQAGGSLRLSCAASGGTSRRYTMGWFRQAPGKEREFVSAISNTGATISGANSMEGRFTISRDNAKNTVYLQMNSLKPEDTAVYYCAATSRGWSIGMTYDYWGQGTQVTVSS
B10: 5p-179 (VHH)
VHH: HVQLVESGGGLVQAGGSLRLSCAASGTISTLNAMGWYRQAPGKQRELLASISNLGTTYHADSVAGRFTISRGSAKNTVNLQMNSLKPDDTAVYYCNTRVLEGGTQIRDYWGQGTQVTVSS
notes: class IV psNb
B11: 4P-3 (VHH)
VHH: DVQLVESGGGLVQAGDSLRLSCAASGRTFGNYVLDWFRQAPGKEREFVASITQTGFGTYYADAVKGRFTISRDNAKNTMYLQMNSLKPEDTAVYYCAADFTAQNGGIRNPTYWGQGTQVTVSS
B12: 5p-82 (VHH)
VHH: HVQLVESGGGLVQAGESLRLSCVDSKRTGSRWPMGWFRQAPGKEREFVASISWTGSRTYYADSVKGRFTISRDNAENTVFLQMNSLKPEDTAVYYCAAAHARVYGANWSSSNRNDYDAWGQGTQVTVSS
B13: 5p-89 (VHH)
VHH: B12 VHH with H1E, E16G, V23E, M34V, Q82K, H100Q, A101T, N114D
B14: 5p-164 (VHH)
VHH: DVQLVESGGGLVKTGDSLRLSCAVSGGTFGSYGMAWFRQAPGKEREIVASIGRTGRTTDYADSVKGRFSIARDNAKNTVYLQMNNLKPEDTAVYYCAARIFSLNYALIGRDTNINYWGQGTQVTVSS
B15: 5p-4 (VHH)
VHH: QVQLVESGGGLVQAGASLRLSCAASGRTFTNSHMGWFRQAPGKERDFVAVISRSGGSTLYADSVKGRFTISRDNAKNTVYLQMNTMKPEDTAVYYCAGARTAGLTSNPSLYDYWGQGTQVTVSS
B16: 5p-176 (VHH)
VHH: EVQLVESGGRLVQAGGSLRLSCAASGRTFSTYTMAWFRQAPGKEREFVAGIARNGDTAYYSDSVKGRFTISRDNAKNEVSLQMNSLKPEDTAVYTCAARSVVQLEVVLNNPIHFEYWGQGTQVTVSS
B17: 5p-64 (VHH)
VHH: QVQLVESGGGLVQAGGSLRLSCAASGRTFSTYAMAWFRQAPGKEREFVAGVARSADTTYYGDSVKGRFTISRDNAKNEVNLQMSSLKPEDTAVYYCAARSVIQYGIVPGNDFHYEYWGQGTQVTVSS
notes: class V psNb
B18: 5p-175 (VHH)
VHH: B17 VHH with G105S
B19: 5p-63 (VHH)
VHH: DVQLVESGGGLVQAGGSLRLSCAASGRSFSTYAMGWFRQAPGKEREFVAGVARSASTTYYTDSVKGRFTISRDNAKNEVYLQMNSLKPEDTAVYYCAARSVIQDTVVPGNPFHYEYWGQGTQVTVSS
B20: 5p-78 (VHH)
VHH: HVQLVESGGGLVQAGGSLRLSCAAAARFSTSAMGWFRQAPGKEREFVAAVSWSNTNIHYADTVKGRFTISADTAKETVYLQMNSLKPDDTAVYYCAQGGWGLTQPIIVDYWGKGTQVTVSS
B21: 5p-126 (VHH)
VHH: B20 VHH with H1Q, I57T, D88E
B22: 5p-180 (VHH)
VHH: QVQLVESGGGLVQAGGSLRLSCVASGTISTLNAMGWYRQAPGKQRELLTSISNLGTTYSADSVKGRFTISRGNAKNTVYLQMDSLKPDDTAVYYCNTRVLEGTEYRDYWGQGTQVTVSS
B23: 5p-156 (VHH)
VHH: EVQLVESGGGLVQAGDSLRLSCVASGRTFTTSIMGWFRQAPGKEREFVAAIARNGVSTFYADSVKGRFTASRDNAKNTLYLQMNSLKPEDTGVYYCAAKPRGVGLTDRISDYDYWGQGTQVTVSS
B24: 5p-3 (VHH)
VHH: QVQLVESGGGLVQAGDSLRLSCAASGRTISTFPMGWFRQAPGKEREFVATITRTGFGTYYSDSVKGRFTISRDNAKNTVFLQMNSLKPEDTALYYCAAAKTTDWVTRAPREMHEYAYWGQGTQVTVSS
B25: 5p-99 (VHH)
VHH: HVQLVESGGGSVQPGGSLRLSCAASGLTLDHYAVGWFRQAPGKEREGVSCISSSTGSAYYADSVKGRFTISRDNAKNMMYLEMNSLKPEDTAVYYCATDLLRRMLPGSSWWCLNQNDFGSWGQGTQVTVSS
B26: 5p-6 (VHH)
VHH: DVQLVESGGGLVQAGGSLRLSCAASGSTFSGNAIGWYRQAPGKQRELVATINAPGSTDYAESVKGRFTISRDNAKNTVFLQMNSLKPEDTAVYYCNVCKFLLSVLCHPGQDYWGQGTQVTVSS
B27: 5p-168 (VHH)
VHH: DVQLVESGGGLVQAGASLRLSCVVSGVTFSTYGMAWFRQAPEKQRTFVATITREDTTFYADSVKGRFTISRDNAKNTVYLQMNSLKLEDTAVYYCAVRRDSSWGYSRDLFEYDDWGQGTQVTVSS
B28: 5p-93 (VHH)
VHH: QVQLVESGGGLVQPGGSLRLSCAASGFTFNRYAMSWVRQAPGKGREWVSGIYSDGSETYYTESVKGRFTISRDNAKNMLYLQMNSLKPEDTALYYCAKDENAHEDYFNSGFDRKYDYWGQGTQVTVSS
notes: class III psNb
B29: 5p-61 (VHH)
VHH: QVQLVESGGGLVQAGGSLRLACAGSGGTFSSYIMAWFHQAPGKEREFIAGISKTGSDTYYADSVKGRFTISRDNAKNTVYLQMNSLKPEDTAVYYCAARRGPLITTSRLHYDFWGQGTQVTVSS
B30: 5p-174 (VHH)
VHH: HVQLVESGGGLVQTGASLRLSCKASGRTFSTYTISWFRQAPGKEREFVGGVATSGGTTYYGDSVQGRFTISRDNAKNEVYLQMNSVKPEDTAVYICAARSVIQDTVVISNPIHFEYWGQGTQVTVSS
B31: 5p-98 (VHH)
VHH: QVQLVESGGGLVQPGGSLRLSCAASGRTLSNYAMGWFRQAPGKEREFVAVIRQRTGMRSYTYYADSVEGRFTISGDGAKMTVSLQMNSLKPEDTAVYYCAIDLIDDYKSTYYYSTQPSSYDYWGQGTQVTVSS
B32: 5p-68 (VHH)
VHH: QVQLVESGGGLVQAGGSLRLSCVASGRTFSTSHMGWFRQAPGKEREFVAVISRSGSSTLDADSVKGRFTISRDNAKNTVYLQMNSLKPEDTAVYYCAGSRTAGLTSNRFLYDSWGQGTQVTVSS

Key:
[1] = molecular target: RBDSARS-CoV-2 (SARS-CoV-2 S protein residues 319-539, C-terminal His-tag) (SARS-CoV-2, UniProt P0DTC2 319-539); experiment: ELISA
[2] = molecular target: RBDSARS-CoV (SARS-CoV S protein residues 318-510, C-terminal His-tag) (SARS-CoV, UniProt P59594 318-510); experiment: ELISA

Row | Binder | IC50 [1] [nM] | IC50 [2] [nM]
1 | B1 | < 10 | 10 to 100
2 | B2 | < 10 | 1000 to 8000
3 | B3 | < 10 | 10 to 100
4 | B4 | < 10 | > 8000
5 | B5 | 10 to 100 | 10 to 100
6 | B6 | < 10 | < 10
7 | B7 | < 10 | < 10
8 | B8 | < 10 | < 10
9 | B9 | < 10 | < 10
10 | B10 | < 10 | > 8000
11 | B11 | 10 to 100 | 1000 to 8000
12 | B12 | 10 to 100 | 10 to 100
13 | B13 | 10 to 100 | 10 to 100
14 | B14 | < 10 | 10 to 100
15 | B15 | < 10 | 10 to 100
16 | B16 | < 10 | < 10

Row | Binder | IC50 [1] [nM] | IC50 [2] [nM]
17 | B17 | < 10 | < 10
18 | B18 | < 10 | < 10
19 | B19 | < 10 | < 10
20 | B20 | < 10 | < 10
21 | B21 | < 10 | < 10
22 | B22 | < 10 | > 8000
23 | B23 | < 10 | 10 to 100
24 | B24 | < 10 | 10 to 100
25 | B25 | < 10 | 1000 to 8000
26 | B26 | < 10 | 10 to 100
27 | B27 | < 10 | < 10
28 | B28 | < 10 | > 8000
29 | B29 | < 10 | 10 to 100
30 | B30 | < 10 | < 10
31 | B31 | < 10 | 10 to 100
32 | B32 | < 10 | 10 to 100
